Patent US20240218030A1 (published 2024)

Target: human transferrin receptor-Fc tag standard (human, UniProt P02786 89-760)
Experiment: ELISA

Chain of human transferrin receptor-Fc tag standard (P02786 89-760): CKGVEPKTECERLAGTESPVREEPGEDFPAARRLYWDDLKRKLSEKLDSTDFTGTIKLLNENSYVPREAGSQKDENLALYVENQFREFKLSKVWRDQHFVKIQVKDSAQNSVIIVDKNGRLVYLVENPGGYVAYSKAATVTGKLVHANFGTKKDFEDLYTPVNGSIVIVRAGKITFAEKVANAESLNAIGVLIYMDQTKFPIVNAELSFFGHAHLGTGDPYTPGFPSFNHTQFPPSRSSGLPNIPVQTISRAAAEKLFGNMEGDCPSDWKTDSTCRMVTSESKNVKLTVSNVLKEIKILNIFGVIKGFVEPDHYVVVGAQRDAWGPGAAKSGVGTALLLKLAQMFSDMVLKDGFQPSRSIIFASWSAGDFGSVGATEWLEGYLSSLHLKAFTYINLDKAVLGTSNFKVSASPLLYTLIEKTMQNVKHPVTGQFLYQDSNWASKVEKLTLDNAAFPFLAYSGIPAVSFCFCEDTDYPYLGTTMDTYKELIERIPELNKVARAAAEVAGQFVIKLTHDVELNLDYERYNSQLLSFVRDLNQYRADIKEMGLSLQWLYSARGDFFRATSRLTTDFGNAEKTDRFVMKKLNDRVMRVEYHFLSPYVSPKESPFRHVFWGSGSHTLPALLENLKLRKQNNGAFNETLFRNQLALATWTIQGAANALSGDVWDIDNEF

B1: huHF_Mutant1-dual (designed binder)
chain: MTTASTSQVRQNYHAASEAAINAQINLELYASYVYLSMSYYFDRDDVALKNFAKYFLHQSHEEREHAEKLMKLQNQRGGRIALADIQKPDCDDGGSYGSLYAFDIWESGLNAMECALHLEKNVNQSLLELHKLATDKNDPHLCDFIETHYLNEQVKAIKELGDHVTNLRKMGAPESGLAEYLFDKHTLGDSDNESMPSFITLASLSTWEGYFDF
Question: B1 was tested. Which Kd did it give?
Answer: 182 nM
